In one assay the test system is editable stop codons. In words: Transfection of in vitro transcribed iADAR mRNA circuits, flow cytometry (mNeonGreen positive cells). The class given is cell-based, human. The following applies: 100 ng mRNA; positive = greater than top 1% of non-transfected cells; ~48 hours. How it is done:
In this case, the dADAR and ADAR constructs serve as negative and positive controls respectively. For the BAD(V) construct, cells only express mNeonGreen if A-1331852 is present during the transfection (see e.g., FIG. 61B).
To test this, the 3′ end of the plasmid was subsequently digested using Pmel, a DNA clean-up was performed, ARCA-capped mRNA was transcribed with T7 polymerase, the remaining DNA were digested with DNAse I, and a poly-A tail was added with E. coli Poly(A) Polymerase (all reagents and protocols from NEW ENGLAND BIO's HiScribe® T7 ARCA mRNA Kit (with tailing)). 70,000 HEK293FT cells were then transfected in suspension with 100 ng of each mRNA construct using Lipofectamine™ MessengerMAX™ Transfection Reagent. Cells were also treated with either DMSO or 1 μM of A-1331852. ˜48 hours after transfection, cells were analyzed by flow cytometry. mNeonGreen positive cells were determined as greater than the top 1% of gated non-transfected HEK cells (NT).
A general note: Flow cytometry measures light scatter and fluorescence of single cells or particles in a stream.

Another assay deals with NS3a-genotype 1b (Hepatitis C virus genotype 1b, UniProt P26662). The following applies: disrupted by NS3a-targeting drugs; read-out: affinity of basal complex; cited from earlier work.
The subject of another assay is 4×UAG MS2 reporter. In words: 4×UAG MS2 reporter co-transfected with iADAR variants, flow cytometry. The following applies: 48 hours, n=3. Format: cell-based, human. The protocol:
HEK293FT cells were co-transfected with the dual-input iADAR, the 4×UAG-MS2 reporter, and either EGFP(R96M) or EGFP(R96M)-AlfaTag on day 0. At the time of transfection, 500 nM of A-1331852 or DMSO was added to their respective conditions. 48 hours after transfection, cells were lifted and run via flow cytometry. The median mCherry to mNeonGreen ratio was computed for transfected cells were gated by BFP expression and mCherry expression. The experiment was then analyzed via one-way ANOVA (n=3 transfected cell populations per condition).
HEK293FT cells were co-transfected with the 4×UAG MS2 reporter and either an MCP-ADAR containing a peptide insertion at the 5′ RNA binding site (see e.g., FIG. 34b, Pep), grazoprevir iADAR (Pep-NS3) or a mutant version of the iADAR (Pep-NS3 (K690R)). At the time of transfection, 3 μM of DMSO or grazoprevir was added. 48 hours after transfection, cells were lifted and run via flow cytometry. […] The experiment was then analyzed via two-way ANOVA (n=3 transfected cell populations per condition).
To test this, LINC-ADAR constructs were created with WT, L699G, or F697Y mutations (see e.g., FIG. 35b) and HEK293FT cells were co-transfected with them and the 4×UAG-MS2 reporter in the presence of 2 μM grazoprevir or DMSO vehicle. 48 hours after transfection and drug treatment, cells were lifted and analyzed by flow cytometry. […]

For the molecule “MCP_ADAR2-DD(E396A & E488Q)_mCherry_FLAG_P2A_T2A_loop(UAG-UAG)_MS2(C)_HaloTag_loop(UAG-UAG)_MS2(C)_P2A_T2A HA_mNeonGreen(M10K) [dADAR mRNA]”, in the assay with editable stop codons, the “population of mNeonGreen positive cells” value was “insignificant population”.
Consider “MCP_ADAR2-DD(E488Q)_mCherry_FLAG_P2A_T2A_loop(UAG-UAG)_MS2(C)_HaloTag_loop(UAG-UAG)_MS2(C)_P2A_T2A_HA_mNeonGreen(M10K) [ADAR mRNA]”, for which the “population of mNeonGreen positive cells” value in the assay on editable stop codons is given as “significant population of mNeonGreen positive cells”.
With “apo NS3a reader peptide, SEQ ID NO: 261, GELDELVYLLDGPGYDPIHSD [ANR]”, in the assay with NS3a-genotype 1b, the Kd is 10 nM.

B1: dual-input iADAR: N-terminal BAD, ALFA-PE at 5' RNA binding site, ADAR2-DD (F697Y), tandem AlfaNb and Bcl-xL at C-terminus (protein)
chain: MASNFTQFVLVDNGGTGDVTVAPSNFANGIAEWISSNSRSQAYKVTCSVRQSSAQNRKYTIKVEVPKGAWRSYLNMELTIPIFATNSDCELIVKAMQGLLKDGNPIPSAIAANSGIYGGSGSGAGSGSPAGGGAPGSGGGSTGAPPNLWAAQRYGRELRRMSDEFVDSFKKASQLHLPQVLADAVSRLVLGKFGDLTDNFSSPHARRKVLAGVVMTTGTDVKDAKVISVSTGTKCINGEYMSDRGLALNDCHAEIISRRSLLRFLYTQLELYLNNKDDQKRSIFQKSERGGFRLKENVQFHLYISTSPCGDARIFSPHEPILEEPAASGSGPGRLEEELRRRLSPGTGDRHPNRKARGQLRTKIESGQGTIPVRSNASIQTWDGVLQGERLLTMSCSDKIARWNVVGIQGSLLSIFVEPIYFSSIILGSLYHGDHLSRAMYQRISNIEDLPPLYTLNKPLLSGISNAEARQPGKAPNFSVNWTVGDSAIEVINATTGKDELGRASRLCKHALYCRWMRVHGKVPSHLLRSKITKPNVYHESKLAAKEYQAAKARLFTAFIKAGLGAWVEKPTEQDQYSLTGSGGTAEVQLQESGGGLVQPGGSLRLSCTASGVTISALNAMAMGWYRQAPGERRVMVAAVSERGNAMYRESVQGRFTVTRDFTNKMVSLQMDNLKPEDTAVYYCHVLEDRVDSFHDYWGQGTQVTVSSGAGSGASSNRELVVDFLSYKLSQKGYSWSQFSDVEENRTEAPEGTESEMETPSAINGNPSWHLADSPAVNGATGHSSSLDAREVIPMAAVKQALREAGDEFELRYRRAFSDLTSQLHITPGTAYQSFEQVVNELFRDGVNWGRIVAFFSFGGALCVESVDKEMQVLVSRIAAWMATYLNDHLEPWIQENGGWDTFVELYGNNGSSELIKENMHMKLYMEGTVDNHHFKCTSEGEGKPYEGTQTMRIKVVEGGPLPFAFDILATSFLYGSKTFINHTQGIPDFFKQSFPEGFTWERVTTYEDGGVLTATQDTSLQDGCLIYNVKIRGVNFTSNGPVMQKKTLGWEAFTETLYPADGGLEGRNDMALKLVGGSHLIANIKTTYRSKKPAKNLKMPGVYYVDYRLERIKEANNETYVEQHEVAVARYCDLPSKLGHKLN
On to B1, for which the “median relative fluorescence with both A-1331852 and EGFP(R96M)-AlfaTag, fold greater than AlfaTag alone” value in the assay with 4×UAG MS2 reporter (500 nM of A-1331852) is about 4.6 ×. Also, the “median relative fluorescence with AlfaTag and DMSO vs negative condition or A-1331852 treatment” value in the assay on 4×UAG MS2 reporter (one-way ANOVA) is given as “significantly higher”.

The values above are taken from patent publication US12565665B2, “Compositions and methods for controlled mRNA translation and stability” (TRUSTEES OF BOSTON UNIVERSITY, priority 2022, dated 2026).
